According to publication PMC11148069 (The EMBO Journal, 2024):
Values belong to the binder of their own block, whether it stands above or below them.

Columns and labels:
[1] = target: the molecule itself; assay: crystal structure; hNup35(173–248)·xhNup35-Nb1t complex; 0.05 M HEPES pH 6.5, 25% PEG400, 0.05 M NaCl, 0.01 M MgCl2
[2] = target: T1, xNup98-APD (residues 714–864), autoproteolytic domain of Xenopus tropicalis Nup98 (Xenopus tropicalis); assay: crystal structure; xNup98-APD(714–864) with xhNup98-Nb2i or xhNup98-Nb3i; 2.5% PEG6000, 25% PEG MME500, 100 mM Tris/HCl pH 9; details: both partners purified
T1 construct: also called APD of Xenopus tropicalis xNup98; source: E. coli NEB Express, purified, untagged
T1 chain: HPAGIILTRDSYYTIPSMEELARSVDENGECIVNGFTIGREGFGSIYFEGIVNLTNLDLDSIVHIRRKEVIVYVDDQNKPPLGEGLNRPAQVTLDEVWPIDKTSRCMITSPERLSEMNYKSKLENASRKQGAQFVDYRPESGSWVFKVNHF

[3] = target: T2, His14-NEDD8-tagged APD of xtNup98 (715–866) (Xenopus tropicalis, UniProt A0A1B8XZT4); assay: pull-down; His14-NEDD8-APD of xtNup98 immobilised on Ni2+ chelate matrix, incubated with xNup98-Nb1t or xhNup98-Nb2i, then xNup96(1–20)-RFP or xtNup88(2–500) added; eluted by NEDP1; SDS-PAGE/Coomassie; details: both partners purified
T2 construct: held on the Ni2+ chelate matrix by the tag; the tag was cleaved by NEDP1 only for elution; also called Nup98-APD; immobilized APD; source: E. coli NEB Express, purified

[4] = target: T3, Xenopus Nup98, endogenous (Xenopus laevis (egg extract, assumed), UniProt A0A8J1MFV7); assay: immunostaining of cells or tissue; digitonin-semi-permeabilized sfGFP-Nup107 HeLa cells incubated 2 h at RT with buffer or Xenopus egg extract, energy mix and 35 nM fluorescent tracking nanobodies; Airyscan confocal microscopy; details: one partner purified
T3 construct: Nup98, the cut product of the Nup98–Nup96 fusion protein (Nup196); the egg extract contains the already cleaved entities; also called xNup98; source: endogenous, soluble fraction of Xenopus egg extract; also as recruited from the extract to NPCs

[5] = target: T4, recombinant Xenopus Nup93 target (BLI) (Xenopus, UniProt Q7ZX96); assay: BLI; nanobodies (biotin-[PEG]3-maleimide on two ectopic cysteines) immobilised on High Precision Streptavidin sensors; target proteins at 30–100 nM; 25 °C; PBS pH 7.4, 0.02% Tween-20, 0.1% BSA; apparent KDs; details: both partners purified
T4 construct: Nup93, Xenopus; the immunogen was the Nup93 α-solenoid domain; also called xNup93; source: E. coli NEB Express, purified
T4 sequence (Q7ZX96 whole entry, the tested form may be a part): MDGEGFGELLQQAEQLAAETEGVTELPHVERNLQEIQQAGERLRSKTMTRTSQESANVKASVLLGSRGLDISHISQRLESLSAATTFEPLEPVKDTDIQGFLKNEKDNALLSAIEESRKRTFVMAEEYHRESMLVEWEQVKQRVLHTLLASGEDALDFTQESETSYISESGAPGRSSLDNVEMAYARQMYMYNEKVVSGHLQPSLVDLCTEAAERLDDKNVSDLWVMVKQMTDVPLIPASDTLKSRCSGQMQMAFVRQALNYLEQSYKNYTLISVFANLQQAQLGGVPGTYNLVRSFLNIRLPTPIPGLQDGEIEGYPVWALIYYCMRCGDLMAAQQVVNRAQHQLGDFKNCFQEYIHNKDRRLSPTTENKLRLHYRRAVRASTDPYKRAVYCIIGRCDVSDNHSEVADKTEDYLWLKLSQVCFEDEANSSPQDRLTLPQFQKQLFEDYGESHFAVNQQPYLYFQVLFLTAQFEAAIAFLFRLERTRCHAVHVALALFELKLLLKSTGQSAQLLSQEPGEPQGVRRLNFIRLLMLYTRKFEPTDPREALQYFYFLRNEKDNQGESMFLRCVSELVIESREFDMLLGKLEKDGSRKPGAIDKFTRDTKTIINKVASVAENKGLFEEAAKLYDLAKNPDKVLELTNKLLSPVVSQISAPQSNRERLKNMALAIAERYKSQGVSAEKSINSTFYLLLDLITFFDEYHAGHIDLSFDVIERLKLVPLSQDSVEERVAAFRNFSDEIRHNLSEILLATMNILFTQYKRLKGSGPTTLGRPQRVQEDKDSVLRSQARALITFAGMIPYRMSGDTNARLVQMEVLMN

[6] = target: T5, recombinant human Nup93 target (BLI) (human, UniProt Q8N1F7); assay: as above; details: both partners purified
T5 construct: Nup93, human; the immunogen was the Nup93 α-solenoid domain; also called hNup93; source: E. coli NEB Express, purified
T5 sequence (Q8N1F7 whole entry, the tested form may be a part): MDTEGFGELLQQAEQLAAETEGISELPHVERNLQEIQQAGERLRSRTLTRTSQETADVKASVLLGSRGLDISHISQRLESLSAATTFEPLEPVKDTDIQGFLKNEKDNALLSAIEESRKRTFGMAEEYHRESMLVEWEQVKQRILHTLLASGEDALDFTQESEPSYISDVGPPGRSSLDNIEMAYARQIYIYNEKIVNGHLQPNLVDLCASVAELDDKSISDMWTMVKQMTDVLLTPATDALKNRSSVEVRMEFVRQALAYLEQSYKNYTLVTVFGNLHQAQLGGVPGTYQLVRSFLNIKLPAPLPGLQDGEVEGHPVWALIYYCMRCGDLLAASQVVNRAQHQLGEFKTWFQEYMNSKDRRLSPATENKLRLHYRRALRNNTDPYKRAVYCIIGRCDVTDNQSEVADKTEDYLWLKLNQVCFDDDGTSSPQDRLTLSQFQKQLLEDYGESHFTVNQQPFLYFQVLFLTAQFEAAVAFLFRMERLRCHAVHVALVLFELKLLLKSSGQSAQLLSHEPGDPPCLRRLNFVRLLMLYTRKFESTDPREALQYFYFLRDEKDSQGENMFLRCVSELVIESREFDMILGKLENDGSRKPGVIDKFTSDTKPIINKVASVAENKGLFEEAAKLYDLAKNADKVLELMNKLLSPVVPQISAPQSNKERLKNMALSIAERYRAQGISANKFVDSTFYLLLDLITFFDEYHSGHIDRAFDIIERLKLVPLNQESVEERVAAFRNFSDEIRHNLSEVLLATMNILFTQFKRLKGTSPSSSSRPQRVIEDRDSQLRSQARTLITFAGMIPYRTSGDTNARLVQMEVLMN

[7] = target: T6, xNup93(168–820), α-solenoid domain of Xenopus laevis Nup93 (Xenopus laevis, UniProt Q7ZX96); assay: cryo-EM structure; equimolar trimeric xNup93(168–820)·xhNup93-Nb4i·xNup93-Nb2t complex; 4.4 Å reconstruction; details: both partners purified
T6 construct: also called Nup93 α-solenoid domain; source: E. coli NEB Express, purified, untagged
T6 sequence (Q7ZX96 168-820): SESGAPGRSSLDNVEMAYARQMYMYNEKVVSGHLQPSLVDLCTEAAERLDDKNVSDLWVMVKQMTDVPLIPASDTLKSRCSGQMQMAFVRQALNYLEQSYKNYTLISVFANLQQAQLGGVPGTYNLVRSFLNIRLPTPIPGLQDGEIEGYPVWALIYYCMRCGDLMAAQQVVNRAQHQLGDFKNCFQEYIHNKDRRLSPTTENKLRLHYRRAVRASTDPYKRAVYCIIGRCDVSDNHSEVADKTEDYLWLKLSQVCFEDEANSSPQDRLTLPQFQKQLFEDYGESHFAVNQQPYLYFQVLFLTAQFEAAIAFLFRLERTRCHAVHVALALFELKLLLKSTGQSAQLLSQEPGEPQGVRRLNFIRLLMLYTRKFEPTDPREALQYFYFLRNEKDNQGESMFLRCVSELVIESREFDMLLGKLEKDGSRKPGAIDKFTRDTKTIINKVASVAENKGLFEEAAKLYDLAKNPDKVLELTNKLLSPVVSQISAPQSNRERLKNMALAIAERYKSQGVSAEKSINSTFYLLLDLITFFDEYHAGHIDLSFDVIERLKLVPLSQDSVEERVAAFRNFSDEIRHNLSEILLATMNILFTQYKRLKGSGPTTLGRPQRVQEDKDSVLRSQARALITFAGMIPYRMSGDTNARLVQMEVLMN

human Nup93, endogenous = target: T7, human Nup93, endogenous (human (endogenous in HeLa), UniProt Q8N1F7); assay: pull-down; (biotin)-Avi-SUMO^Eu1-nanobodies on streptavidin-agarose, incubated with HeLa lysate or soluble fraction of Xenopus egg extract, 40 min, 4 °C; eluted by SENP^EuB; SDS-PAGE/Coomassie, identities confirmed by mass spectrometry; details: one partner purified
T7 construct: Nup93, human; also called hNup93; source: endogenous, HeLa lysate
T7 sequence (Q8N1F7 whole entry): as the sequence (Q8N1F7 whole entry, the tested form may be a part) above

[8] = target: T8, Xenopus Nup93, endogenous (Xenopus (endogenous in egg extract), UniProt Q7ZX96); assay: as above; details: one partner purified
T8 construct: Nup93 of Xenopus egg extract; also called xNup93; source: endogenous, soluble fraction of Xenopus egg extract
T8 sequence (Q7ZX96 whole entry): as the sequence (Q7ZX96 whole entry, the tested form may be a part) above

[9] = target: T9, hNup35 (residues 173–248), RRM domain (human, UniProt Q8NFH5); assay: crystal structure; hNup35(173–248)·xhNup35-Nb1t complex; 0.05 M HEPES pH 6.5, 25% PEG400, 0.05 M NaCl, 0.01 M MgCl2; details: both partners purified
T9 construct: Nup35 (also called Nup53 or MP44), human, RRM domain, residues 173-248; also called homodimeric RRM domain of Homo sapiens (h)Nup35; Nup35 RRM; source: E. coli NEB Express, purified, untagged

human Nup35, endogenous = target: T10, human Nup35, endogenous (Homo sapiens (HeLa), UniProt Q8NFH5); assay: immunostaining of cells or tissue; sfGFP-Nup107 HeLa cells, PFA-fixed and Triton X-100-permeabilized or unfixed and digitonin-semi-permeabilized; 35 nM Alexa Fluor 647-labelled nanobody, 30 min, RT; confocal microscopy; details: one partner purified
T10 construct: Nup35, human; also called hNup35; source: endogenous, in NPCs of HeLa cells
T10 sequence (Q8NFH5 whole entry): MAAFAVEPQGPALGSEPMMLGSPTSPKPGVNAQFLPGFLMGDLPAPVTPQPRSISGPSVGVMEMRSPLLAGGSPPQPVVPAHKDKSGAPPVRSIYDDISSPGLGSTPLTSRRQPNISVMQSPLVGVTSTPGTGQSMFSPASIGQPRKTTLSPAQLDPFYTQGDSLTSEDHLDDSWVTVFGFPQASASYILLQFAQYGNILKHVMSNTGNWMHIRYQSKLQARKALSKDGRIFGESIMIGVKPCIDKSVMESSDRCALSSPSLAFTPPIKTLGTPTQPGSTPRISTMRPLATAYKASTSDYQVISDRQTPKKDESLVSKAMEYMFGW

[10] = target: T11, Xenopus Nup35, endogenous (Xenopus laevis (egg extract), UniProt Q6INW0); assay: immunostaining of cells or tissue; digitonin-semi-permeabilized sfGFP-Nup107 HeLa cells incubated 2 h at RT with buffer or Xenopus egg extract, energy mix and 35 nM fluorescent tracking nanobodies; Airyscan confocal microscopy; details: one partner purified
T11 construct: Nup35 of Xenopus egg extract; also called xNup35; source: endogenous, from Xenopus egg extract, in newly assembled NPCs

[11] = target: T3, Xenopus Nup98, endogenous; assay: pull-down; (biotin)-Avi-SUMO^Eu1-nanobodies on streptavidin-agarose, incubated with HeLa lysate or soluble fraction of Xenopus egg extract, 40 min, 4 °C; eluted by SENP^EuB; SDS-PAGE/Coomassie, identities confirmed by mass spectrometry; details: one partner purified
human Nup98, endogenous = target: T12, human Nup98, endogenous (human (endogenous in HeLa), UniProt P52948); assay: as above; details: one partner purified
T12 construct: Nup98, the cut product of the Nup98–Nup96 fusion protein, human; also called hNup98; source: endogenous, HeLa lysate; also in NPCs of semi-permeabilized HeLa cells
T12 sequence (P52948 1-880): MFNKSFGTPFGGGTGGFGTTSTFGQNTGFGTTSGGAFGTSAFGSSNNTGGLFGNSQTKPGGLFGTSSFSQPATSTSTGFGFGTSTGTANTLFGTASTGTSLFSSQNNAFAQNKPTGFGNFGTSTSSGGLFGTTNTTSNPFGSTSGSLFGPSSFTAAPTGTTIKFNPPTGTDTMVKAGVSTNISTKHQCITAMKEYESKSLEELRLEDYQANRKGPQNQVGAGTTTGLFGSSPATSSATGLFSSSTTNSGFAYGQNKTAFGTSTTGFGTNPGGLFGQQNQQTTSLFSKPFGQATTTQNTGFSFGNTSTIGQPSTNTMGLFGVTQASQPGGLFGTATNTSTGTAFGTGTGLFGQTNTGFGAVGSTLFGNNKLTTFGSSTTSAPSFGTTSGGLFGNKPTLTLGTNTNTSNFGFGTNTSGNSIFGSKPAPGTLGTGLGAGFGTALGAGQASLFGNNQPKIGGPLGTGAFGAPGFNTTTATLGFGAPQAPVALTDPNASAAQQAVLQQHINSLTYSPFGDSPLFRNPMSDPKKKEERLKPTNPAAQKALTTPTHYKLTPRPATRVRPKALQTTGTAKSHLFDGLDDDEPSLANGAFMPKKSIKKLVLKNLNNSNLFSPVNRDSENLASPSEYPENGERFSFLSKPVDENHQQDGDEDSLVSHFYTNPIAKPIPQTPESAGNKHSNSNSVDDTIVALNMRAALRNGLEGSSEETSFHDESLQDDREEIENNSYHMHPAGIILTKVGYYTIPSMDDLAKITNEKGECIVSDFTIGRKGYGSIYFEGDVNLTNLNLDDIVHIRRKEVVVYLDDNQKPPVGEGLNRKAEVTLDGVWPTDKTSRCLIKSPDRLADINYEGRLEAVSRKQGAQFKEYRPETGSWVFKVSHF

B1: hNup35 (residues 173–248), RRM domain (domain or fragment, human, UniProt Q8NFH5 173-248, looked up)
chain: DSWVTVFGFPQASASYILLQFAQYGNILKHVMSNTGNWMHIRYQSKLQARKALSKDGRIFGESIMIGVKPCIDKSV
notes: Nup35 (also called Nup53 or MP44), human, RRM domain, residues 173-248; also called homodimeric RRM domain of Homo sapiens (h)Nup35; Nup35 RRM; source: E. coli NEB Express, purified, untagged
- binding result [1]: binds

B2: xhNup98-Nb3i (VHH)
VHH: QVQLVESGGGLVQAGGSLRLSCAASGRTFSTYAMGWFRQAPGKEREFVSACSWSGGITRYADSVKGRFTISRDNAKNTVYLQMNSLKPEDTAVYYCASAASSAAYSGAYYYTSYYDYWGQGTQVTVSS
notes: they are in PDB 7NOW (complex with xNup98-APD); form of the crystal structure; source: E. coli SHuffle, purified (Ni2+ chelate, NEDP1 protease elution, SEC)
- binding result [2]: binds

B3: xNup98-Nb1t (as added in the binding assay of Fig. 11C) (VHH)
VHH: QVQLVESGGGPVEAGGSLRLSCAASGRSFSNSVMAWFRQAPGKEREFLSVLNWSSGRTSIADSVKGRFTMSRDPAKITVYLQMNGLKPEDTAVYYCAASNRGSLYTLDNQNRYEDWGQGTQVTVSS
notes: they are in PDB 5E0Q (xNup98-APD·xNup98-Nb1t complex, Pleiner et al, 2015); also called tracking nanobody xNup98-Nb1t; source: E. coli SHuffle, purified
- binding result [3]: binds

B4: xNup98-Nb1t, fluorophore-labelled (VHH)
VHH: B3 VHH
notes: as the VHH of m10 with engineered cysteines; source: E. coli SHuffle, purified, labelled with maleimide dye
- binding result [4]: binds

B5: xhNup93-Nb4i, biotinylated for BLI (VHH)
VHH: QVQLVESGGGVVQTGDSLMLSCTVSGHTIDNWAMGWFRQTPRKQREFVAAIDKRGTGAIYGNSVKGRFTVSRDNAKNMVYLRMNSLKPEDTAVYFCAVDQLNAGLGDVSYDYDYWGQGTQVTVSS
notes: as the VHH of m1 with two ectopic cysteines; source: E. coli SHuffle, purified
- binding result [5]: binds
- binding result [6]: binds

Further lines, results first:

- binding result [7]: binds
B6: xhNup93-Nb4i (VHH)
VHH: B5 VHH
notes: they are in PDB 8CDS (unliganded nanobody) and PDB 7ZOX (complex with xNup93); form used for the cryo-EM complex; for the unliganded crystal it was expressed as a His14-bdSUMO fusion and cleaved; source: E. coli SHuffle, purified (Ni2+ chelate, NEDP1 protease elution, SEC)

- binding result (human Nup93, endogenous): binds
- binding result [8]: binds
B7: (biotin)-Avi-SUMO^Eu1-xhNup93-Nb4i (VHH)
VHH: B5 VHH
notes: as the VHH of m1; the tag was cleaved by SENP^EuB only for elution; source: E. coli SHuffle, purified; not shown: Avi (biotinylated), N-terminal, kept; SUMO^Eu1, N-terminal, kept

- binding result [9]: binds
B8: xhNup35-Nb1t (VHH)
VHH: QVQLVESGGGLVQAGGSLRLSCVGTGNISSAYTMAWYRQAAGKEREVVAGILNGGSTHYADSVKGRFTISRDNAKNTVYLQMNSLQPEDTGVYCCHVVIESTRFVYDHYWGQGTRVTVSS
notes: they are in PDB 8OZB (complex with the human Nup35 RRM homodimer); form of the crystal structure; also called cross-specific anti-Nup35 nanobody; source: E. coli SHuffle, purified (Ni2+ chelate, NEDP1 protease elution, SEC)

- binding result (human Nup35, endogenous): binds
- binding result [10]: binds
B9: xhNup35-Nb1t, fluorophore-labelled (VHH)
VHH: B8 VHH
notes: as the VHH of m12 with engineered cysteines; source: E. coli SHuffle, purified, labelled with maleimide dye

- binding result [2]: binds
B10: xhNup98-Nb2i (VHH)
VHH: QVQLVESGGGLAKPGGSLRLSCVATGTFRSMEDVGWYRQAPGKDRELVAEITTLGKVTYADSVKGRFTISRDDAKNAVYLQMSDLKSEDTAVYYCNIEADQTKGIGYVVYPYWGQGTRVTVSS
notes: they are in PDB 7NQA (complex with xNup98-APD); form of the crystal structure; also called xNup98-Nb2i; source: E. coli SHuffle, purified (Ni2+ chelate, NEDP1 protease elution, SEC)

- binding result [3]: binds
B11: xhNup98-Nb2i (as added in the binding assay of Fig. 11C) (VHH)
VHH: B10 VHH
notes: as the VHH of m5; source: E. coli SHuffle, purified

- binding result [11]: binds
- binding result (human Nup98, endogenous): binds
B12: (biotin)-Avi-SUMO^Eu1-xhNup98-Nb2i (VHH)
VHH: B10 VHH
notes: as the VHH of m5; the tag was cleaved by SENP^EuB only for elution; source: E. coli SHuffle, purified; not shown: Avi (biotinylated), N-terminal, kept; SUMO^Eu1, N-terminal, kept

- binding result [7]: binds
B13: xNup93-Nb2t (VHH)
VHH: DVQLVESGGGLVQPGGSLRLSCVASGFTFSRVGMGWVRQAPGKGLEWVSDINASGGTGYADSVKGRFAISRDNAKNTLYLQMNRLKPEDTAVYYCAKMMDTAMIEAGIIKPAGQGTQVTVSS
notes: they are in the PDB entry of the unliganded nanobody (printed as 8CDT in the methods and 8CD7 in the data availability) and in PDB 7ZOX; purified untagged in the cryo-EM complex; for the unliganded crystal expressed as a His14-bdSUMO fusion and cleaved; also called tracking nanobody xNup93-Nb2t; source: E. coli SHuffle, purified
